Data from US20250152743A1, “SYNPOPTOSIS CIRCUITS FOR PROGRAMMABLE CELL DEATH CONTROL” (California Institute of Technology, priority 2023, published 2025).

Target: Caspase-3-L-tev-S (Homo sapiens (Human)) (UniProt P42574)
Test: cell-based or functional assay

## membrane-bound TEVP (CAAX) (enzyme)
  cell death of polytransfected HEK293 cells, Annexin V staining and flow cytometry: 40 % cell death
